# Experimental data from US20140274782A1, “AFFINITY REAGENTS AND METHODS FOR DETECTION, PURIFICATION, AND PROTEOMIC ANALYSIS OF METHYLATED PROTEINS” (The Board of Trustees of the Leland Stanford Junior …, priority 2013, published 2014).
# B1: SIRT1: NAD-dependent lysine deactylase SIRT1 (protein, UniProt Q96EB6 2-747, looked up)
# NAD-dependent protein …: ADEAALALQPGGSPSAAGADREAASSPAGEPLRKRPRRDGPGLERSPGEPGGAAPEREVPAAARGCPGAAAAALWREAEAEAAAAGGEQEAQATAAAGEGDNGPGLQGPSREPPLADNLYDEDDDDEGEEEEEAAAAAIGYRDNLLFGDEIITNGFHSCESDEEDRASHASSSDWTPRPRIGPYTFVQQHLMIGTDPRTILKDLLPETIPPPELDDMTLWQIVINILSEPPKRKKRKDINTIEDAVKLLQECKKIIVLTGAGVSVSCGIPDFRSRDGIYARLAVDFPDLPDPQAMFDIEYFRKDPRPFFKFAKEIYPGQFQPSLCHKFIALSDKEGKLLRNYTQNIDTLEQVAGIQRIIQCHGSFATASCLICKYKVDCEAVRGDIFNQVVPRCPRCPADEPLAIMKPEIVFFGENLPEQFHRAMKYDKDEVDLLIVIGSSLKVRPVALIPSSIPHEVPQILINREPLPHLHFDVELLGDCDVIINELCHRLGGEYAKLCCNPVKLSEITEKPPRTQKELAYLSELPPTPLHVSEDSSSPERTSPPDSSVIVTLLDQAAKSNDDLDVSESKGCMEEKPQEVQTSRNVESIAEQMENPDLKNVGSSTGEKNERTSVAGTVRKCWPNRVAKEQISRRLDGNQYLFLPPNRYIFHGAEVYSDSEDDVLSSSSCGSNSDSGTCQSPSLEEPMEDESEIEEFYNGLEDEPDVPERAGGAGFGTDGDDQEAINEAISVKQEVTDMNYPSNKS
# modifications: GST or 3xFlag tag
# B2: hnRNP D: protein with methylated lysine identified in 3xMBT pull-down (protein, UniProt Q14103 2-355, looked up)
# Heterogeneous nuclear …: SEEQFGGDGAAAAATAAVGGSAGEQEGAMVAATQGAAAAAGSGAGTGGGTASGGTEGGSAESEGAKIDASKNEEDEGHSNSSPRHSEAATAQREEWKMFIGGLSWDTTKKDLKDYFSKFGEVVDCTLKLDPITGRSRGFGFVLFKESESVDKVMDQKEHKLNGKVIDPKRAKAMKTKEPVKKIFVGGLSPDTPEEKIREYFGGFGEVESIELPMDNKTNKRRGFCFITFKEEEPVKKIMEKKYHNVGLSKCEIKVAMSKEQYQQQQQWGSRGGFAGRARGRGGGPSQNWNQGYSNYWNQGYGNYGYNSQGYGGYGGYDYTGYNNYYGYGDYSNQQSGYGKVSRRGGHQNSYKPY
# B3: TUBB4: protein with methylated lysine identified in 3xMBT pull-down (protein, UniProt P04350 1-444, looked up)
# Tubulin beta-4A chain: MREIVHLQAGQCGNQIGAKFWEVISDEHGIDPTGTYHGDSDLQLERINVYYNEATGGNYVPRAVLVDLEPGTMDSVRSGPFGQIFRPDNFVFGQSGAGNNWAKGHYTEGAELVDAVLDVVRKEAESCDCLQGFQLTHSLGGGTGSGMGTLLISKIREEFPDRIMNTFSVVPSPKVSDTVVEPYNATLSVHQLVENTDETYCIDNEALYDICFRTLKLTTPTYGDLNHLVSATMSGVTTCLRFPGQLNADLRKLAVNMVPFPRLHFFMPGFAPLTSRGSQQYRALTVPELTQQMFDAKNMMAACDPRHGRYLTVAAVFRGRMSMKEVDEQMLSVQSKNSSYFVEWIPNNVKTAVCDIPPRGLKMAATFIGNSTAIQELFKRISEQFTAMFRRKAFLHWYTGEGMDEMEFTEAESNMNDLVSEYQQYQDATAEEGEFEEEAEEEVA
# B4: FAM50A: protein with methylated lysine identified in 3xMBT pull-down (protein, UniProt Q14320 2-339, looked up)
# Protein FAM50A: AQYKGAASEAGRAMHLMKKREKQREQMEQMKQRIAEENIMKSNIDKKFSAHYDAVEAELKSSTVGLVTLNDMKAKQEALVKEREKQLAKKEQSKELQMKLEKLREKERKKEAKRKISSLSFTLEEEEEGGEEEEEAAMYEEEMEREEITTKKRKLGKNPDVDTSFLPDRDREEEENRLREELRQEWEAKQEKIKSEEIEITFSYWDGSGHRRTVKMRKGNTMQQFLQKALEILRKDFSELRSAGVEQLMYIKEDLIIPHHHSFYDFIVTKARGKSGPLFNFDVHDDVRLLSDATVEKDESHAGKVVLRSWYEKNKHIFPASRWEPYDPEKKWDKYTIR
# modifications: methylated lysine
# notes: protein with methylated lysine identified in 3xMBT pull-down
# B5: eEF1A2: protein with methylated lysine identified in 3xMBT pull-down (protein, UniProt Q05639 2-463, looked up)
# Elongation factor 1-alpha 2: GKEKTHINIVVIGHVDSGKSTTTGHLIYKCGGIDKRTIEKFEKEAAEMGKGSFKYAWVLDKLKAERERGITIDISLWKFETTKYYITIIDAPGHRDFIKNMITGTSQADCAVLIVAAGVGEFEAGISKNGQTREHALLAYTLGVKQLIVGVNKMDSTEPAYSEKRYDEIVKEVSAYIKKIGYNPATVPFVPISGWHGDNMLEPSPNMPWFKGWKVERKEGNASGVSLLEALDTILPPTRPTDKPLRLPLQDVYKIGGIGTVPVGRVETGILRPGMVVTFAPVNITTEVKSVEMHHEALSEALPGDNVGFNVKNVSVKDIRRGNVCGDSKSDPPQEAAQFTSQVIILNHPGQISAGYSPVIDCHTAHIACKFAELKEKIDRRSGKKLEDNPKSLKSGDAAIVEMVPGKPMCVESFSQYPPLGRFAVRDMRQTVAVGVIKNVEKKSGGAGKVTKSAQKAQKAGK
# Tests used:
# G9a = molecular target: T1, G9a (Homo sapiens, UniProt Q96KQ7); assay: In vitro methylation reaction with 3H-SAM, autoradiograph; assay type: biochemical; settings: recombinant SIRT1, recombinant G9a SET domain
# T1 construct: in vitro methylation assays on SIRT1 and SIRT1K622R using recombinant G9a SET domain
# Protocol: Recombinant GST-SIRT1 was expressed by baculoviral transduction of the Sf9 insect cell line as previously described (Levy et al. (2011) Nat. Immunol. 12, 29-36). A panel of enzymes was tested for ability to methylate recombinant SIRT1 using ^3H-SAM in in vitro methylation reactions (Kuo et al. (2011) Mol. Cell 44, 609-620). SIRT1K622R was generated by site-directed mutagenesis (Stratagene). For the pull-down experiment, 293T cells were transfected with a 10:1 enzyme:substrate DNA ratio. 150 μg of nuclear proteins were used for pull-downs with 3×MBT or 3×MBTD355N coupled GSH-Sepharose as described above.
# 3×MBT domain of L3MBTL1 = assay: SILAC proteomic pull-down 3×MBT vs 3×MBTD355N from 293T nuclear extract, LC-MS/MS; assay type: binding, human; settings: SILAC ratio, 293T nuclear extract pull-down; * = protein identified in only one labeling experiment
# Protocol: Protein pull-downs were performed as described above using 600 μg of nuclear extract prepared with isotopic labels as indicated. After eluting with glutathione, 3×MBT domain was removed by dialysis into high salt and rebinding to GSH-sepharose. Bound proteins were separated by SDS-PAGE and analyzed by in-gel tryptic digest followed by LC-MS/MS. Peptides were identified using MaxQuant version 1.2.2.5 (Cox and Mann (2008) Nat. Biotechnol. 26, 1367-1372) and candidate methylated peptides were verified by manual inspection.
# For stable isotope labeling by amino acids in cell culture (SILAC) experiments HEK 293T cells were grown for at least six doublings in DMEM for SILAC supplemented with 10% dialyzed fetal bovine serum (FBS), 230 mg/L L-proline and either 100 mg/L each of L-lysine and L-arginine (“light” medium), D4-L-lysine and ^13C6-L-arginine (“medium” media), or ^13C6^15N2-L-lysine and ^13C6^15N4-L-arginine (Thermo Scientific). Heavy methyl labeling used DMEM without L-Methionine or L-Cysteine supplemented with D3^13C-L-Methionine (Sigma), L-Cysteine (Sigma) and 10% dialyzed FBS.
# 600 μg of nuclear extract was incubated overnight rotating at 4° C. with 20 μl packed 3×MBT or 3×MBTD355N beads in a total volume of 250 μL with binding buffer. Supernatant was removed and saved for use as a loading control. Beads were washed 4×5 minutes with 0.5 mL binding buffer. Protein was eluted by incubating in 20 μL elution buffer (10 mg/mL glutathione in 50 mM Tris pH 8.0) rotating at 4° C. for four hours. Elutions from 3×MBT and 3×MBTD355N were combined and dialyzed overnight at 4° C. against 10,000× volume of dissociation buffer (50 mM Tris pH 7.5, 750 mM NaCl) in a 0.1 mL Slide-A-Lyzer MINI Dialysis Device with 3.5K molecular weight cutoff (Thermo Scientific). 80 μL of GSH-Sepharose was prepared by washing briefly three times with 0.5 mL binding buffer. Dialyzed proteins were added to the GSH-Sepharose and incubated 4 hours rotating at 4° C. to deplete the GST-fusion domains. Supernatant was transferred to a fresh 1.5 mL tube. Proteins were separated by SDS-PAGE on a 10% polyacrylamide gel and stained using SilverQuest Silver Staining Kit (Life Technologies). Lanes were excised, residual 3×MBT band was removed, and gel was diced into 0.5 mm cubes. Gel pieces were destained and processed by in-gel digestion (Carlson et al. (2011) Science Signaling 4) with sequencing grade trypsin (Promega) and the peptide sample was dried completely in a vacuum centrifuge. To prepare a loading control, 2 μL each of light and heavy nuclear extract were combined, 6 μL of 8M urea was added, proteins were denatured by adding 2 μL of 100 mM dithiothreitol in digest buffer (50 mM ammonium bicarbonate) and heating to 60° C. for 1 hour, cysteine was alkylated by adding 2.2 μL 100 mg/mL iodoacetamide in digest buffer and incubating 1 hour at room temperature in darkness, and proteins were digested by adding 80 μL trypsin (Promega) at 12.5 ng/μL in digest buffer and incubating overnight at room temperature in darkness. Digestion was stopped by adding 10 μL of 10% formic acid.
# Each experiment consisted of two sets of pull-downs: “forward” labeling with 3×MBT incubated with light nuclear extract and 3×MBTD355N with medium extract, and a second “reverse” labeling experiment with the label conditions swapped. Proteins were included in the results if they were quantified in both labeling directions. To determine reproducibility the entire experiment including the label swap was duplicated using independent protein preparations and a mass spectrometer at another institution.
# For 3×MBT pull-down experiment #1 the gel lane was processed and peptides were loaded off-line onto a first dimension trap column (Waters Xbridge, C18, 10 μm particle size, 100 Å pore size, 5 cm packing length, 150 μm column i.d.). […]
# T1 sequence (Q96KQ7 1038-1155 limits assumed, species assumed): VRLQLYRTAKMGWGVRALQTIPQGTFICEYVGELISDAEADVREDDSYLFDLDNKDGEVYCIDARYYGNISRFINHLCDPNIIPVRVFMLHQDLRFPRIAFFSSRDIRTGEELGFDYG
Molecule,in vitro methylation by G9a (G9a),Protein Ratio 3xMBT/D355N (3×MBT domain of L3MBTL1)
B1,methylates the NAD-dependent lysine deactylase SIRT1 at lysine 622,–
B2,–,22.5
B3,–,1.9
B4,–,3.7*
B5,–,1.5
